Patent US20250163182A1

How the values were obtained:
[1] = biological target: human ENPP3 on cells (human) (UniProt O14638); experiment: flow cytometry receptor quantification on ACHN cells
[2] = biological target: human ENPP3 on cells (human) (UniProt O14638); experiment: flow cytometry receptor quantification on CHO-K1 ENPP3-OE cells; bar above the ULOD line
[3] = biological target: human ENPP3 on cells (human) (UniProt O14638); experiment: flow cytometry receptor quantification on KMRC20 cells
[4] = biological target: human ENPP3 on cells (human) (UniProt O14638); experiment: flow cytometry receptor quantification on 786-O cells
[5] = biological target: human ENPP3 on cells (human) (UniProt O14638); experiment: flow cytometry receptor quantification on TUHR4TKB cells (Table 18 of the text prints this value under a second TUHR10TKB row)
[6] = biological target: human ENPP3 on cells (human) (UniProt O14638); experiment: flow cytometry receptor quantification on Hep3B cells
[7] = biological target: human ENPP3 on cells (human) (UniProt O14638); experiment: flow cytometry receptor quantification on HUH-7 cells

Sequence of human ENPP3 on cells (human) (O14638 whole entry): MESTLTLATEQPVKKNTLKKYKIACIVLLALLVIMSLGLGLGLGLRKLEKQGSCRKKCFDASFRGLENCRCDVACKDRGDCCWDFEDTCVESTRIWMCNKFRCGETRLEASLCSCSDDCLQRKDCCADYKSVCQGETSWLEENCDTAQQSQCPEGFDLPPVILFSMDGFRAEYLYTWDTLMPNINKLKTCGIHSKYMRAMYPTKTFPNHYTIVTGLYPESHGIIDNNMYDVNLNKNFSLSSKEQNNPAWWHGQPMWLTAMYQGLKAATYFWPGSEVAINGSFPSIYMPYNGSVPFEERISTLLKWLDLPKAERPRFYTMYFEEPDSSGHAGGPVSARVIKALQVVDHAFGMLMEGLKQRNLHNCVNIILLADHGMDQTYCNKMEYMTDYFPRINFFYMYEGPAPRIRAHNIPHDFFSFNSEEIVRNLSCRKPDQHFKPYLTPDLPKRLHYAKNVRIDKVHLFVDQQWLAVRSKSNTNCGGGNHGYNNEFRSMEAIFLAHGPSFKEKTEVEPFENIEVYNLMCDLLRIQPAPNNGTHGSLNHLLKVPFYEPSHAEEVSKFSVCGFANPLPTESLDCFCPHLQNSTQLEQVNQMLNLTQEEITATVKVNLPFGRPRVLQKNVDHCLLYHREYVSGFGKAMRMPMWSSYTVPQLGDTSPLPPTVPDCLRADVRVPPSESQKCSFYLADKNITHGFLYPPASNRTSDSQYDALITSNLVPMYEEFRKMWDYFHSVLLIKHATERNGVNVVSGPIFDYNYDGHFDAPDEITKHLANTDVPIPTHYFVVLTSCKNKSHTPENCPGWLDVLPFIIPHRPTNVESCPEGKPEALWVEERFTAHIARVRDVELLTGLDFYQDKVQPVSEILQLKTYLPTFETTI

For commercial ENPP3 antibody clone NP4D6, the ENPP3 Receptor Density - Antibody Binding capacity (ABC) [1] was 5000 ABC, the ENPP3 Receptor Density - Antibody Binding capacity (ABC) [2] was > 470000 ABC and the ENPP3 Receptor Density - Antibody Binding capacity (ABC) [3] was 21000 ABC. For the same substance, the ENPP3 Receptor Density - Antibody Binding capacity (ABC) [4] was 4000 ABC, the ENPP3 Receptor Density - Antibody Binding capacity (ABC) [5] was 61000 ABC and the ENPP3 Receptor Density - Antibody Binding capacity (ABC) [6] was 13000 ABC. For the same substance, the ENPP3 Receptor Density - Antibody Binding capacity (ABC) [7] was 7000 ABC.
